Experimental data taken from the supplement of paper PMC9112550, “Optimization of the antimicrobial peptide Bac7 by deep mutational scanning” (BMC Biology, 2022).

test system: Escherichia coli TOP10; assay: shrunken log2 fold change of peptide-encoding DNA abundance (4.5 h post-induction vs induction); higher = less antimicrobial activity (less host growth inhibition); details: time post-induction: 4.5 h; library: site-saturation at positions 5, 18, 19, 20
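Note: peptides expressed intracellularly from a pBAD plasmid library in pooled LB shake-flask culture, induced with 0.3% L-arabinose, DNA abundance read by NGS, three biological replicates, DESeq2 with apeglm shrinkage.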

Compared with RRIRCRPPRLPRPRPRPDCLPRP, RRIRKRPPRLPRPRPRPVVLPRP is higher in “shrunken log2 fold change” value: -0.494 for the first, -0.0253 for the second.

Compared with RRIRVRPPRLPRPRPRPPDQPRP, RRIRIRPPRLPRPRPRPMNHPRP is lower in “shrunken log2 fold change” value: 0.124 for the first, -0.348 for the second.

Compared with RRIRFRPPRLPRPRPRPMDCPRP, RRIRGRPPRLPRPRPRPPFYPRP is higher in “shrunken log2 fold change” value: 0.00893 for the first, 0.397 for the second.

First: RRIRQRPPRLPRPRPRPEKQPRP
Second: RRIRRRPPRLPRPRPRPELLPRP
The “shrunken log2 fold change” value of the first is lower: -0.267 for the first, 0.147 for the second.

Compared with RRIRLRPPRLPRPRPRPSEDPRP, RRIRTRPPRLPRPRPRPIANPRP is higher in “shrunken log2 fold change” value: -0.256 for the first, 0.207 for the second.

First: RRIRGRPPRLPRPRPRPTGMPRP
Second: RRIRNRPPRLPRPRPRPHDEPRP
The “shrunken log2 fold change” value of the first is higher: 0.851 for the first, -0.103 for the second.

RRIRWRPPRLPRPRPRPSGQPRP and RRIRARPPRLPRPRPRPSIHPRP are within 0.2 log units of each other in “shrunken log2 fold change” value: -0.0599 for the first, -0.233 for the second.

RRIRSRPPRLPRPRPRPSRCPRP and RRIRVRPPRLPRPRPRPPICPRP are within 0.2 log units of each other in “shrunken log2 fold change” value: -0.134 for the first, -0.131 for the second.

RRIRYRPPRLPRPRPRPEDNPRP and RRIRMRPPRLPRPRPRPQYCPRP are within 0.2 log units of each other in “shrunken log2 fold change” value: -0.0125 for the first, -0.0737 for the second.

Going from RRIRIRPPRLPRPRPRPGCEPRP to RRIRYRPPRLPRPRPRPVWQPRP, the “shrunken log2 fold change” value falls from -0.0688 to -0.288.

RRIRVRPPRLPRPRPRPMRWPRP and RRIRERPPRLPRPRPRPHYRPRP are within 0.2 log units of each other in “shrunken log2 fold change” value: 0.0506 for the first, 0.05 for the second.

Compared with RRIRFRPPRLPRPRPRPRTGPRP, RRIRERPPRLPRPRPRPQHMPRP is lower in “shrunken log2 fold change” value: 0.0905 for the first, -0.735 for the second.

First: RRIRQRPPRLPRPRPRPYVEPRP
Second: RRIRNRPPRLPRPRPRPQIEPRP
The “shrunken log2 fold change” value of the first is lower: -0.537 for the first, -0.251 for the second.

RRIRLRPPRLPRPRPRPAEHPRP and RRIRTRPPRLPRPRPRPHDCPRP are within 0.2 log units of each other in “shrunken log2 fold change” value: 0.141 for the first, -0.00088 for the second.

First: RRIRDRPPRLPRPRPRPVRHPRP
Second: RRIRLRPPRLPRPRPRPIMLPRP
The “shrunken log2 fold change” value of the first is higher: 0.646 for the first, -1.12 for the second.

Compared with RRIRDRPPRLPRPRPRPPPEPRP, RRIRIRPPRLPRPRPRPWHDPRP is lower in “shrunken log2 fold change” value: 0.48 for the first, -0.676 for the second.

Going from RRIRIRPPRLPRPRPRPELFPRP to RRIRERPPRLPRPRPRPEFPPRP, the “shrunken log2 fold change” value falls from 0.23 to -0.00557.

Going from RRIRRRPPRLPRPRPRPFTEPRP to RRIRCRPPRLPRPRPRPYCIPRP, the “shrunken log2 fold change” value falls from -0.267 to -0.565.

RRIRYRPPRLPRPRPRPEVGPRP and RRIRVRPPRLPRPRPRPIEQPRP are within 0.2 log units of each other in “shrunken log2 fold change” value: 0.0159 for the first, -0.14 for the second.

Compared with RRIRLRPPRLPRPRPRPNAEPRP, RRIRGRPPRLPRPRPRPSPCPRP is lower in “shrunken log2 fold change” value: 0.143 for the first, -0.0911 for the second.

Going from RRIRYRPPRLPRPRPRPYQNPRP to RRIRRRPPRLPRPRPRPSLTPRP, the “shrunken log2 fold change” value rises from -0.467 to -0.0192.

Going from RRIRVRPPRLPRPRPRPTENPRP to RRIRFRPPRLPRPRPRPPEGPRP, the “shrunken log2 fold change” value rises from 0.00381 to 0.996.

RRIRGRPPRLPRPRPRPIEGPRP and RRIRTRPPRLPRPRPRPKSAPRP are within 0.2 log units of each other in “shrunken log2 fold change” value: 0.0275 for the first, 0.221 for the second.

RRIRYRPPRLPRPRPRPDKFPRP and RRIRARPPRLPRPRPRPCMQPRP are within 0.2 log units of each other in “shrunken log2 fold change” value: -0.116 for the first, -0.125 for the second.

Going from RRIRTRPPRLPRPRPRPNENPRP to RRIRVRPPRLPRPRPRPRYRPRP, the “shrunken log2 fold change” value falls from 1.59 to -0.0212.

First: RRIRERPPRLPRPRPRPMVAPRP
Second: RRIRDRPPRLPRPRPRPNPCPRP
The “shrunken log2 fold change” value of the first is higher: 0.138 for the first, -0.328 for the second.

Going from RRIRHRPPRLPRPRPRPLPQPRP to RRIRPRPPRLPRPRPRPVAFPRP, the “shrunken log2 fold change” value falls from 0.348 to -0.0622.

Compared with RRIRVRPPRLPRPRPRPTRPPRP, RRIRGRPPRLPRPRPRPRSQPRP is higher in “shrunken log2 fold change” value: 0.822 for the first, 1.13 for the second.

First: RRIRMRPPRLPRPRPRPLIAPRP
Second: RRIRVRPPRLPRPRPRPNVLPRP
The “shrunken log2 fold change” value of the first is higher: 0.34 for the first, 0.0178 for the second.

Going from RRIRGRPPRLPRPRPRPWYMPRP to RRIRSRPPRLPRPRPRPRPSPRP, the “shrunken log2 fold change” value rises from 0.0753 to 0.439.

Compared with RRIRQRPPRLPRPRPRPYAPPRP, RRIRWRPPRLPRPRPRPMMAPRP is higher in “shrunken log2 fold change” value: -0.505 for the first, 0.452 for the second.

Compared with RRIRRRPPRLPRPRPRPWHRPRP, RRIRVRPPRLPRPRPRPCTDPRP is lower in “shrunken log2 fold change” value: -0.113 for the first, -0.46 for the second.

Going from RRIRDRPPRLPRPRPRPFCAPRP to RRIRVRPPRLPRPRPRPLQLPRP, the “shrunken log2 fold change” value falls from 0.652 to -0.091.

RRIRSRPPRLPRPRPRPNAIPRP and RRIRFRPPRLPRPRPRPGDQPRP are within 0.2 log units of each other in “shrunken log2 fold change” value: 0.235 for the first, 0.0789 for the second.

Going from RRIRLRPPRLPRPRPRPWKNPRP to RRIRARPPRLPRPRPRPCYFPRP, the “shrunken log2 fold change” value falls from -0.114 to -0.324.

Going from RRIRKRPPRLPRPRPRPRQGPRP to RRIRCRPPRLPRPRPRPDIPPRP, the “shrunken log2 fold change” value falls from 0.708 to -0.331.

Compared with RRIRKRPPRLPRPRPRPFHWPRP, RRIRWRPPRLPRPRPRPHNHPRP is lower in “shrunken log2 fold change” value: 0.111 for the first, -0.707 for the second.

With RRIRPRPPRLPRPRPRPWLAPRP the “shrunken log2 fold change” value was 0.343.
